Molecular target: vaccinia virus B5R 6xHis protein (baculovirus-expressed soluble extracellular domain) (vaccinia virus)

With Hum IgG1 isotype control (antibody) as the substance, how does the % inhibition read?
The % inhibition was 0%.

Source: patent US20140186370A1
